According to PMC9354549, “SARS-CoV-2 Nucleocapsid Protein Has DNA-Melting and Strand-Annealing Activities With Different Properties From SARS-CoV-2 Nsp13”:

Assays:
[1] = target: SARS-CoV-2 nonstructural protein 13 (CoV-2 Nsp13) (SARS-CoV-2, UniProt P0DTD1 5325-5925); assay: fluorescence anisotropy; Fluorescence anisotropy, 50 mM Tris-HCl pH 7.0 with 300 mM NaCl ([…]) or 20 mM NaCl ([…]; temperature not stated; conditions: protein: recombinant; tags: 6xHis-SUMO, removed with SUMO protease; label: 3'-FAM (fluorescein); single strand, 43 nt
[2] = target: SARS-CoV-2 nucleocapsid protein (CoV-2 N) (SARS-CoV-2 (2019-nCoV), UniProt P0DTC9 1-419); assay: fluorescence anisotropy; 300 mM NaCl; 5 nM DNA; Kd was fitted but its value is only in Figure 7A; Fluorescence anisotropy, 50 mM Tris-HCl pH 7.0 with 300 mM NaCl (N) or 20 mM NaCl (Nsp13); 5 min equilibration, second reading after 10 min; temperature not stated; conditions: protein: recombinant; chain copies: 2; label: 3'-FAM (fluorescein); single strand, 43 nt

CTGTAGGAATGTGAAATAAAAACGATGTTTTATTTACATTGTA (ssDNA) [S43]: binds [1]; binds [2].
